Source: a protein production outcome set (Wang et al. 2014)

Assay: label from the status in PepcDB records

Sequence | protein production
MNNGRRIGLIMIITGATLWGLSGPMIQWLFQHTNVSSIDFLTIRLLLAGIFILSFLLIKKQNIFQIWKHPRYSIQLIIFSILGMLGAQYAFIETVHISNAVTATLFQFLGPVLITMYVAFEQRKFPASMQLFAIIAALIGTYFIITNGSIENIVLSKEAIIFGLLTAIGFAFYTLHPASLIKECGTTVVIGWGMLIGGIALLIYNRSFGWNQFSQTLTLKTFSMLILIIISGTLSFLLYIGSLKYLAATETSILSSIEPLVAAIVSITWLNESFGTYQLLGGVCIVLSVIFLTMPQKETEPTYTTEQI | failed
MNESGFLIDTHAHIDGHDFAADFDAMLSRAWEAGLSHIVTVGADLESSRAAVALAGRHERIWCAVGIHPHDAGRVTDRCYDEIRTLAQGNPKVAAIGEIGLDFFRDRSPRDEQEQVFRRFIRLARELALPIVVHDRDAHERVMAILREEKARDVGGVLHCFSGDLAMARECVDMGFLISIPGTVTYPSNEALREVVRGVKIEHLLVETDCPYLTPVPHRGKRNEPAYVRLTAEKVAELKGLSLEDVGRITSLNARRLFGIGESDQAARIAYRIRNSLYLNITNRCSNRCSFCAKFDDYTVKGHHLRLDHEPDSAEVLAAVGEPGPVDEIVFCGFGEPMLRLDLIVEVARELKKRGFRIRINTDGQANLVHGRNVLPELQGLVDCISVSLNAADADTYARLCNTPFGTNGFNGICRFLEEARLYIPTVVATAVTVPGIDVAAVRALAESLGVEFREREFAEVGLEHHHHHH | not failed
MAGVCGSKLMMARLVGMPDLFSDSGWGSGELPRALRPGLVHLPRWMGLDQQFAVVQQCREIARSVAGTPLAMHRQQWASGTMSAYLMSLGLHWEYRTYQYVSQWGGVAVPPIPVEFSALAHEVLRAAAGVDDSLAAWVDSYRIDAALVNYYPPGAGMGMHQDAFEDSRAPVVSLSIGDSAVFRAGNGVNRQRPWQDVVLGSGDAVVFGGPSRDMFHSVVRLHAGTAPTRCGVSQGRINLTFRQVKL | failed
MVDHGMFYSSRMSTLSSNGRGDAYTCKKALHLTLNKPNVVKACSDLKKNEHQISRDFAAETKKKTEFLVLKKNNDERSKTGEVTREKKQSALPLKLSKTPRSGTGEIKQTLKKRGLSKSVPETSRLIKLKKQPPVKVSDKPKSCPVLTKNDTDTLELFEIAKKSADFANAKGILASEVETSMCVDTLTLLLEFPISARDMETRKLMVRLEHLTKHKNRKICNSASKLLQCWRESIREQQLRESRKTQG | failed
MDVFDGLPDPIIVDILNKVGDVKTLLRCSSLSKRFNSLVPQSESLTLRLDHSVSDSPVVTSIFRSLFNGLVSLLSKPAKPITITTLSPSLPFKILSRFDRIRNLDVELPGGDVKLEKGAAVKWKAEFGKTLKSCVIVAFRSAGTVSSPVAVEGESDAEFVTGLKTRVVWTISALMAASSRHYLMREVVKEHEEIESLVMRDKEREGTVVMNEEGLKELRNTEARVEDEERVVKNKRSVVPSVRMSMRHAPSLKLKSGICLESATLVIVRPSGADFEVGDDAELATEAFVGDCMYGEAVVALLKCKKNALEMNSF | failed
MRQRKDMPHNRLQTGGMTDEPTDIKAEAKPARTSDLRGFIRLLEERGQLRRIRQPVSLVHEITEIHRRVLADGGPALLFEQPVDHEGKVRKMPLLANLFGTRQRIEWGLGLETGGLPALGQKLTELREPRPPKSMAEAWSKLPLLRAALSMRQRNVSRAPVQEKVLTRDAVDLARLPVQWCWPGEPAPLITWPLVITRSPDDPDDINVGIYRMQVLGPDRVIMRWLAHRGGAHHHRLWQARGLDMPVTVAIGADPATILAAVMPLPDHISELGFSGLLRGAKSRIAKALTVPMPVPANAEIVLEGTVSATETAMEGPYGDHTGYYNSVEAFPVMTLSAITMRRDPIYLSTYTGRPPDEPSVLGEAMLEIFLPLVKRQFAEIVDLWMPPEACSYRVMVASIDKRYPGQAKRVMMGLWSMLPQFSYVKLIILVDPDIDVRSWTDVVWALSTRFDASRDTTIINDTPIDYLDFASPKAGLGGKMGLDATRKLPPETEREWGRVLSMTPDVVAKVDLVWRDLGLGERPLEHHHHHH | failed
MPLSVGQGYFTSSISSEKFNAIKESARLPELSLWEKIKAYFFTTHHAEALECIFNLYHHQELNLTPVQVRGAYIKLRALASQGCKEQFIIESQEHADKLIIKDDNGENILSIEVECHPEAFGLAKEINKSHPKPKNISLGDITRLVFFGDSLSDSLGRMFEKTHHILPSYGQYFGGRFTNGFTWTEFLSSPHFLGKEMLNFAEGGSTSASYSCFNCIGDFVSNTDRQVASYTPSHQDLAIFLLGANDYMTLHKDNVIMVVEQQIDDIEKIISGGVNNVLVMGIPDLSLTPYGKHSDEKRKLKDESIAHNALLKTNVEELKEKYPQHKICYYETADAFKVIMEAASNIGYDTENPYTHHGYVHVPGAKDPQLDICPQYVFNDLVHPTQEVHHCFAIMLESFIAHHYSTE | failed
MNKRVQAFLAKMQEKELDGIIINNLKNVYYLTGFWGSNGTVFISRDRQVLVTDSRYIIAAKQETSGFEIVADRDELAVIAGIVKDMGLTRIGFEDEISVSYYHRMQAAFAGLNLLPQTQFVEGLRMIK | failed
MAAKFHLKKAKDGQFHFNLHAANGEIILTSELYKAKDSALGGIESVRKNSQRDGAFEVKPANNGKFHFVLKATNGQVVGQSQLYASQANAEAGVQSVKRATPEAGLSDESLEHHHHHH | not failed
MKVIICGAGQVGYGIAEQLSREDNEVSVIDTAAPLITAITETLDVRGYVGHGAHPDMLAKAGADQADMIIAVTLHDEINIVACEVAHALFSVPTKIARIRDQSYMKPEYADLFSRENMSIDVTISPEVEVGKMVLRRIAFPGATDVVRFAEDTIYMLAIECMEDCPVINTPLQQLSSLFPDLIATVVGVYRDGILKVAHSSEQLRVGDLAYVICQRQHARRTLSLFGHEEQEAQRIVIAGAGNIGHFVAHKIEEMQSKTRVKIIEADRDRAIAASEQLSHTIVMHGSALDQKILMQADIQDADLIVTLTNNDQTNILAAVIAKQLGCKSNLALLNSTSFHDVARSLGLDAYINPRAVTISRVLQHVRKGRIRSVYAVQRGSAEVIEAEALETSPLVGQSFRDIDMPDGVRIGAIYRDGVVIRPDGSTKIKAKDRVVLFASADAVRDVEQLFRVSIQYF | failed
MDRDELVRYLDAYLRIQDFPQDPSLNGLQVEGKRTVRKVGAAVDAGEAIFRKALEEEVDFLIVHHGLFWGKPFPIVGHHKRRLETLFQGGINLYAAHLPLDAHEEVGNNFVLARELGLVDLTPWDVGVKGRFPQPTPLLQVADRLGQLTGMQPLVHQGGLDHVETVILVSGSGTGLLPKVDADLFVTGEPKHSVFHETFERGLNVIYAGHYDTETFGVKALAAHLEARFGLPWVFLDHPTGL | not failed
IARLDWSATPLGESGHWPQSLRTAVDIVIHSPMPMLLLWGAELTQIYNDGFALLAGNKHPSAFGHPAHLTWPELMDFTDPIYRAVLNGQVRTFSEQRFSLQRTNGSEYDLWLDLTYSPIRNERGDVAGILVTAIETNERRRIALELQQR | failed
MAADVVFPGLCVFLSAGLLLALVHGRRVGRRADRQCRHLAAITDTMSEGFYVVDGDDRIVMANAAAGRILGYTQDDLIGACAHALFHARSADDPDPVPLEECRLNRAVRERRAAFLDVGHFRHRSGKIIAVEVSCNPVADTLAEEGRRGGLLGWLLDGDDAEGAPGALLSMVTFVDITARRESEAAVIKLSHAVEQSSASIVITDADGRIEYANPAFTKISGYTAQEAIGRRPSILKSGLVPAETYRALWQTITNGGEWRGEFHNRRKDGTLYWEMASISPIRDARGKITNFVAVKDDVTERKAIESELYHRANYDALTGLPNRQLLLDRVSTALDLARRHDRRVAVMFMDIDRFKQINDSMGHAAGDVLLKQAASRLAAVLRPQDTLGRLGGDEFLVVAPGLRWESEATALASRLLEVARRPFTIDGREVYVSVSIGVSLGPVDGTTAQALMRNADAAMYLAKGGGRDAAHFFTPDIEAAARRRMLIENGLRTAVSDGSLYLALQPIIACADHTMIKAEALLRWTHPQLGGVPPSEFIPIAEESGLIRAIGAWVIEEAARLLVSLDPPRDGAFRLGINIASSQFTGGLHHHVAGMLARYDLDPRMLEIEITERMLLDPSPAILEQVDALRAMGVSIAIDDFGTGYSALSYLSVFHVDTLKIDRAFVSVMTDEARSQALIGAIVALGHELGCAVVAEGVETADQARLLGELAVDALQGYFLGRPTTAEAISDRLNPGTGRPYDKAALGTEFAEGGDLGLSVGAL | failed
MALQLGPHELQHVFSFLEARDLLRAAQVNKVWNEVSMTNELWRQLCLRRWAPCKALPVVLGTQTWRQYYFCRSELEFRVKSGRPQDFICKAISGHTGTIDQLAYVSPHEYRFDEKARSVVCTVSSDCTVRAWDLQEGTEMWSSPVQPAPLVNLVAYPQLQLVVTVDTQGLIRGWNTDTGSEWAFFSLPTSCSSMEACDHPEGSFLLVACAEGTLYTMTVPQLQVVFRVATFPHTPVSLMCSPDKQWVLVSAQDSDLGPKVFYTQPLLHPSEDRLPASATLPIRLSSRACWAPDEAARLMVTHRDDSGVHLVITTFELKANKSRDRVSILAQQLASFPLPDTMTPHLMQGHGSQVILLTSGSELVLFNIHGLQLMAFQDHQKPITSVWVDPDRVITAALDLSLCVYVWNKENTSPILKSCYHLLGGSHRWASGFTHVKSDSRSIAGVEARSTGTSILRSYCYKVQLG | failed
SKVEVIYKELGKQHRFSFKGQIFFVSIDSMMEKIDFNIEDSVIVLNFDHAHLWDDSAVNAIDTIVRKFEEKNNVVYVEKLNADSRKIISELSYLNETHL | failed
MKPSFKKLLLLFSIITILSIACTPHAKASGRSWKSWFIEQYFWLKRDKSYYKVQDESSFQKYLNASREQSDKGYYLDPNSVNGGLVQERLFDMQVYSWNDNGKANQKTIFYLAGGSYLNNPTPYHISMLKTLSTSLDAKIILPIYPKTPRYTYDYAIPRLVNLYRHFHEKNANLTLMGDSAGGGLALGLAHALSHQSGQEAIPQPKNIILLSPWLDVTMKHPEIPKYEDTDPILSAWGLARVGEIWANGSNNTNHTYVSPKNAPATKLAPITLFTGTREIFFPDIRDYAAQLQAANHPVNYIAQEGMNHVYPIYPIEEAKTAQYQMIDIINKTP | failed
PLTTHNMNSSTSNKVALNAAREGIVLLKNQGDLLPLDKQKVKKIAVVGTLAKYAPPTGFGSANVMASHYVSELSGLQQMAPNAKVEFIDGLSLDPSTSAWNTTDAAGNSVQGMKVEYFSNTNWSGDAAVTRTEQHVDLDWANDKNLPFESNTSTSDPYTTKGSTAGELNGDTSSTSIRYTGKITPTQSGEQVFKVRADGAVRLWVNGKKIIDNGDGKPLPGNSIPPTIPEFAKINLEAGQSYDVKLEYSRRAGYLSTMGGLVGVQLSSASLNAPQDLSGYDAVVVAVGNSNEYEGEGFDHSFDLPEFQNELIQNIAKVNPNTVVTMYGGTGLKMSDWIEQVPVALHAFYPGQNGGQALAEILFGKINPSGKLPISIERNIEDNPAYASFPKFDNQNTLAEMDYKDDLMLGYRGYEKKGIKPLYPFGYGL | failed
QVGIYRTRTCDGLILNANQRFADLFGFDSPQEIIGIEHTIGYWVNPSDRQQGIEVMKRDGEVRSYEAQMRKRDGTVFWGLFSSYLNAGDDYIEGVIADISDVYDELRLRKQAEVALQASEAELRSLFSAIPDPLCVVTAQ | failed
MKSITQASFMKGIMFTFTIAIISYILAKFPILHTIGALAIAIIFAMIYRQVIGYPEHIRPGITFASKRLLKFAIILYGLKLNMGDILGKGWKLLLIDIIVIIFSISLTLLLNQIIKGNKDISILLGIGTGVCGAAAIAATAPILKSKEKDIAISVGIIALVGTIFALIYTAIEAIFNIPTITYGAWTGISLHEIAQVVLAAGIGGSEAMTFALLGKLGRVFLLIPLSIVLILYMRYKSHSSQVQQKIDIPYFLIGFIIMACINTFVPIPSLLMNIINVITTLCMLMAMVALGLNIVLKEVISKALKPFIVICITSICLSGVTLLVTSIMFK | failed
MHCVFLEFNMSVFKKIYFALSAFIVAPHIFLLMSSRHDNPIFRDIEVWSEKLLGKKISGRSGLVASVVELLSLAPEFRNLFYYRVPRARFFKFLSRPENTLHIHTRTIGPGFFIQHGFATIISAESIGADCWINQQVTIGYVDSTGAPKIGDNVTINAGAKVLGNIVIGDNAKVGANAVVVKNIPADCVVVGVPARIIRRAGARVDEAL | failed
